What was measured:
Raji = assay: ADCC activity in vitro (CytoTox 96 LDH assay), positive control cell line Raji; format: cell-based; settings: effector normal human PBMC, E:T=100:1, 2.5 ug/mL, 4 hours
EOL-1 = EOL-1 cell growth with human FLT3 ligand and antibody (Cell Titer Glo, 5 days); format: cell-based; settings: 50, 10 or 5 ng/mL, no antibody
Protocol: The ability of FLT3 antibodies (CHv62.21 and v62-1b37.1) to mediate the effect of human FLT3 ligand was evaluated using the human leukemia EOL-1 cell line, which endogenously expresses FLT3. Isotype control antibody (mLys-1c3.1) was also used. […] The next day, cells were treated with 50, 10 or 5 ng/mL of human FLT3 ligand (in 25 μl of complete media) and 10, 1, 0.1 and 0 μg/mL of test antibody (in 25 μl of complete media). Media alone was used as the untreated control. […] At the end of the incubation period, 100 μl of Cell Titer Glo was added to each well and incubated for 30 minutes, shaking, at room temperature.

Flt3 protein = Flt3 protein (Homo sapiens, UniProt P36888); assay: Binding of hybridoma MAb to Flt3 protein and Flt3 expressing cells; settings: recombinant and endogenous cells
Excerpt: MAbs to FLT3 were generated using VelocImmune® technology (Regeneron, Tarrytown, N.Y.) wherein genetically engineered mice make antibodies that have fully human variable regions and mouse constant regions. The MAb designated v62-1b21 (also known as AGS62.21) was generated after immunizing VelocImmune® mice with recombinant human FLT3 protein.

RS-4-11 = format: cell-based, human
Protocol: Briefly, The RS-4-11 cells were seeded in 50 μl of complete media at a density of 3000 cells per well onto 96 well plates and placed in a tissue culture incubator at 37° C.; 5% CO2. The next day, the ADCs were prepared in complete media at 10 μg/mL and serially diluted 1:5 for a total of 9 points. […] At the end of the incubation period, 20 μl of Presto Blue was added to each well and incubated for 2 hours. The plates were read using a BioTek Synergy H4 plate reader using 540 Excitation and 590 Emission wavelengths and graphed using Graphpad Prism software.

Q: With Rituximab as the molecule, how does the ADCC activity (Raji) read?
A: confirms ADCC activity

B1: Human FLT3 ligand: human FLT3 ligand, purchased from R and D Systems (protein)
chain: TQDCSFQHSPISSDFAVKIRELSDYLLQDYPVTVASNLQDEELCGGLWRLVLAQRWMERLKTVAGSKMQGLLERVNTEIHFVTKCAFQPPPSCLRFVQTNISRLLQETSEQLVALKPWITRQNFSRCLELQCQPDSSTLPPPWSPRPLEATAPTAPQPP
Q: How did the “effect of human FLT3 ligand alone on growth of EOL-1 cells” value (EOL-1) turn out when B1 was run?
A: has no effect on growth

B2: v62-1b21: hybridoma FLT3 MAb from VelocImmune mice, fully human variable regions and mouse constant regions (antibody, V domains shown)
VH: EVQLVESGGGLVRPGGSLRLSCAASGFTFSGYSINWVRQAPGKGLEWVSSISSSSNYIYYADSVKGRFTISRDNAKNSLYLQMNSLRAEDTAVYYCAREGFIAGTTFDAFDIWGQGTMVTVSS
VL: DIQMTQSPSSLSASVGDRVTITCRASQGIRNDLGWYQQKPGKAPKRLIYAASSLQSGVPSRFSGSGSGTEFTLTISSLQPEDFATYYCLQHNGFPYTFGQGTKLEIKR
Q: How did the “binding to Flt3 protein and Flt3 expressing cells” value (Flt3 protein) turn out when B2 was run?
A: specifically binds to Flt3 protein and Flt3 expressing cells

B3: v62-1b21.1-AGL-0129-08 (conjugate)
VH: B2 VH
VL: B2 VL
Q: B3 was tested. Which cytotoxicity (RS-4-11) did it give?
A: can induce cytotoxicity

Source: patent US10751422B2, “Antibody drug conjugates (ADC) that bind to FLT3 proteins” (AGENSYS, INC., priority 2015, dated 2020)
